# A protein production outcome set (Wang et al. 2014)
# Test: label from the status in PepcDB records
# 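Note: failed if final PepcDB status was selected cloned or expressed and not failed if soluble or beyond.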
row,Sequence,protein production
1,MNFFTSPFSGIPLDQQVTNPNIIVGKHSYYSGYYHGHSFDDCVRYLHPERDDVDKLVIGSFCSIGSGAVFMMAGNQGHRSDWISTFPFFYQDNDNFADARDGFTRSGDTIIGHDVWIGTEAMIMPGVKIGHGAIIASRSVVTKDVAPYEVVGSNPAKHIKFRFSDVEIAMLLEMAWWNWPESWLKESMQSLCSSDIEGLYLNWQSKART,not failed
2,MNFGEAVSSFFRNYVNFSGRASRSEFWYSYLFIIIVGVILVIVDTIVKNEIISSIWNLAALLPTLAMTTRRLHDINRSGWHQLLAWFIPVGSIALIIWYCKKSDDTVTLSEIERVFR,failed
3,MNFPHMIPYNAPYYFVLLIAALLPMILTLAIKGTRWPWYQTLVTLVFLYISFGGEFWQQGVALIVYVIYQTLLTWGYAAYRKNKNAGWVFYLAVFLAILPLVWVKVSPFMTGKTTLLGFLGISYLTFKAVQVVMDLRDGVMKEYHPFRYIQFLLFFPTISSGPIDRYRRFEKDLKNPPSAEKYLDFLEKGIFYLFLGFLYKFIISHYLGGVFLPHVEKMALAQGGLSWWTVGYMYNYSLYLFFDFAGYSLLAVGTSYLMGYDTPMNFNKPFLSWNIKEFWNRWHMTLSFWFRDYIYMRLMFFLMKKKVFKSRIVTSNIGYFALFLIMGIWHGLTWFYIAYGLYHATLICVTDAWLRFKKKHKDKIPSNKFTHAFAVFLTFQAVCVSFLIFSGFLDKLWFK,not failed
4,MNFPIDEKLIREKQNELHIKDLGMASIRDLVALVTNLEKATGTKFCRMEMGVPGLPAPQIGIETEIQKLREGVASIYPNLDGLPELKQEASRFAKLFVNIDIPARACVPTVGSMQGCFVSFLVANRTHKNREYGTLFIDPGFNLNKLQCRILGQKFESFDLFEYRGEKLREKLESYLQTGQFCSIIYSNPNNPTWQCMTDEELRIIGELATKHDVIVIEDLAYFGMDFRKDYSHPGEPLYQPSVANYTDNYILALSSSKAFSYAGQRIGVLMISGKLYEREYPDLEESFGRLRFGEALSSSALYALSSGATHSAQWGMAAMLKACNDGEYNFRDSVIEYGRKARIMKKMFLDNGFNIVYDKDGNEPLADGFYFTVGYKGMDSSKLIEKFVRYGMCAITLKTTGSKRNEAMRICTSLLPESQFPDLEKRLQMLNAEG,not failed
5,MNFVTLTSDEFNAFTTKHFSHYTQSAIHYNHRVDLKGDVHLVGVKDDNGQVIAGCLLTEARTLKFFKYFYTHRGPVMDYTNQSLVAFFFKALTSYLKKHNCLYVLVDPYLIENLRNADGEIVKSYDNRAFVRTMDKLGYKHQGFPVGYDSMSQIRWLSVLDLKDKTEDQLLKEMDYQTRRNIKKTYDIGVKTKTLTIDETQTFFDLFHMAEEKHGFKFRELPYFEEMQKLYDDHAMLKLAYIDLNEYLKTLQLKQQQLTAELSGVEEALEESPNSKKNKTKRTQLEQQLNSNKRKIDNTIEQIEQDGAVLNLASALFIYNEHEVYYLSSGSNPKYNAYMGAYHLQWEMIKFAKAHHIDRYNFYGITGDFSESSEDYGVQQFKKGFNAHVEEYIGDFIKPIKPLLYKVQTYLNHKRR,failed
6,MNGAVDLVIRFLLFAMLHSIAALPGVQQRIGNMFPRGFRFYRAAYNLAALVTFGWVMAAWPLSPVIYLVPGSASLAFHAVQAFTLLQMIRCVSRTGMADFLGIRHPSREDAAHELVTTGCYGTVRHPLYTLAMVFCLFNPLMTVKWLLFTLMAGGYFVMGAVVEERRLEREFGDAYRSYRRQVPMLIPRRRKPVAKE,failed
7,MNGDSKPYPLIVQQVMLFTTHPAHGVKAGMAKALHMIHAGRKVLVFIALLVSASLAMADVAIPPLKARVTDLTGTLSANEATQLEQKLAAFEARKGSQIAVLIVSTTQPETIEQYSIRVVDAWKLGRKGIDDGVLLLVAKQDRTVRVEVGYGLEGVLPDAVAKRITDEIIVPEFRQGRFAAGINAGVDRIIGVIEGEPLPPPPARSARGGDSSAAADILVNNIIFVFILLFIAAKVFQSIFGRFLGATLLSTAAAIIVWLVFASIFLALIAAAFAFFISLFGHAGSGIYRGGRGWPGGFGGYGGWGGRGGPGGFGGGGGFGGGGGGFGGGGASGRW,failed
8,MNGFIPIIASIAISLPLLIFGSHSDVKKRSINSFTFLPIFILALAFYILDKDVVMSIVTILSTVAVFIKPNIYVYIVLPLIIIGIGFFDTINLLTILIVGMFLLTGFGELLFGIGDIKGIVSVVLLFSSIPRFNNYIPFSIVFVFFIAVASGGALLYFVVYARLNGLKLRGLNVLYDEHEYLRNTIKYQLKDTNSGKVMIYRVPFLVPILVSTVLSLIAQLIIYASIHT,failed
9,MNGGKTAVIVLGWNGAADTLACLASLAKVRQPAFTVILADNGSTDGTVGLVRQAFPEVEILELGRNLGFAAGNNAAFRSLRGRGFDRVVFLNNDTVVDPGFLQPLLDELQKPWVGIAAPKILYMDDPGRIWYAGGVLESATGLIEHTGIRQPDGPRFDTPEPVWYATGCCLAMRCRVFEEVGGFDERFRMYGEDVDLSMKVRERGLIVMYQPASRIWHRVSASSGGEMNLGKQLRKSGAAMMLFAKHGMIGGLVLYPLLLPFRALLGLLRFQFFRWTSSQEREEA,failed
10,MNGGTFTTGKEKERAGIYFNFKTTAQERVSLSERGTVALPVASSWGEAKTFVSISSVEDLNKKVGLSIDDPSLLLLREAKKNAKTVLMYRLTEGVRASADIAEGVKATAVYGGTKGNDIIIRINQNVLDANSFDVTTYMDESEVDKQTVKKAEELTANGYVTFTGTGDLSSTIPLTGSEGDTAAETLNASAGIRLSGGTDKAPVNSDYTDFLAAAETESFDVIALPVAEGDQLKATFAAFIKRLRDGQGQKVQGVTANYAGDYEGIINVTEGVLLEDGTEVTPDKATAWVAGASAGATFNQSLTFVEYEGAVDVLHRLDHDTIVERLGKGEFLFTFDARDKSVSVEKDINSLVTFTAEKNKKFAKNKIVRVLDAVNNDLTRELKALIKSRKGSGSDIPASEDGLQYVKTMITQYMTTLQDAGGITGFDSDEDITISMNEDRDGFLIDLLYSLSTQQKNSTLMWRLEHHHHHH,not failed
11,MNGRRTIGEDGLVFGLVVIVALVAAVVVGTVLGHRYRVGPPVLLILSGSLLGLIPRFGDVQIDGEVVLLLFLPAILYWESMNTSFREIRWNLRVIVMFSIGLVIATAVAVSWTARALGMESHAAAVLGAVLSPTDAAAVAGLAKRLPRRALTVLRGESLINDGTALVLFAVTVAVAEGAAGIGPAALVGRFVVSYLGGIMAGLLVGGLVTLLRRRIDAPLEEGALSLLTPFAAFLLAQSLKCSGVVAVLVSALVLTYVGPTVIRARSRLQAHAFWDIATFLINGSLWVFVGVQIPGAIDHIAGEDGGLPRATVLALAVTGVVIATRIAWVQATTVLGHTVDRVLKKPTRHVGFRQRCVTSWAGFRGAVSLAAALAVPMTTNSGAPFPDRNLIIFVVSVVILVTVLVQGTSLPTVVRWARMPEDVAHANELQLARTRSAQAALDALPTVADELGVAPDLVKHLEKEYEERAVLVMADGADSATSDLAERNDLVRRVRLGVLQHQRQAVTTLRNQNLIDDIVLRELQAAMDLEEVQLLDPADAE,failed
12,MNGSADAGPRPRKYVFITGGVVSSLGKGILTSSLGALLRARGYRVTAIKIDPYVNVDAGTMRPYEHGEVFVTADGAETDLDIGHYERFLDMDLSRGNNLTTGQVYLSVIQKERRGEYLSQTVQVIPHITDEIKERIRKVAEEQKAEIVVVEVGGTVGDIESLPFLEAIRQFRFDEGEGNTLYLHLTLVPYLETSEEFKTKPTQHSVATLRGVGIQPDILVLRSARPVPEEVRRKVALFTNVRPGHVFSSPTVEHLYEVPLLLEEQGLGRAVERALGLEAVIPNLSFWQEAVRVLKHPERTVKIAIAGKYVKMPDAYLSLLEALRHAGIKNRARVEVKWVDAESLEAADLDEAFRDVSGILVPGGFGVRGIEGKVRAAQYARERKIPYLGICLGLQIAVIEFARNVAGLKGANSTEFDPHTPHPVIDLMPEQLEVEGLGGTMRLGDWPMRIKPGTLLHRLYGKEEVLERHRHRYEVNPLYVDGLERAGLVVSATTPGMRGRGAGLVEAIELKDHPFFLGLQSHPEFKSRPMRPSPPFVGFVEAALAYQERA,not failed
13,MNGSEFVPLSLTPLLIGVLAAVACALPGNFLVLRRQALIGDAISHVVLPGIVVAFLLTGAIAAWPMMLGAAGAAVVAVVLIEAIRRLGRIEPGAAMGVVFTTMFAAGVLLLEQTDTSTVHLDVEHALYGNLESLIWLDATGWASLLDPVALAGLPVELSRILVTLVGVVGFIWLFWRPLKLSTFDEGFARTLGIRTNLLGLALVIVAAVAAVAAFDAVGSIIVIAMFICPPAAARMMTNTLEGQVGWSVVFAILSAVLGYVLAGYGPLWLGARDAVSAAGMIATMSGLILALTARFGPCRSRTGAPVQA,failed
14,MNGSLQRSHMEIVPDTSVVIDGRVSDQVKADADPDTDVDGMGFAGATVVVPEAVVGELEAQANDGRETGWEGLEELQTLVDLAEEGTIDVEYVGRRPDAIEKREAGEGQIDALIRDIAGDRDATLVTSDDVQAEVARAKGLAVEFVDPVKRTVDRLQI,failed
15,MNGSLQTADRTPVDYVNPYIGNISHLLVPTFPTIQLPNSMLRVYPERADYTSELLKGLPLIVTNHRERSAFNFSPYQGEKLRPVITYNYDNEHITPYSFDVELDDNRMKAEYALSHQSAIYRITYEADKPAYLIVNSRNGSIHANENFISGRQQLNDNTNVYVYIEAQEKPLEHHHHHH,not failed
16,MNGYTISAIYAHIASGISLEKRKGFFEMLDEIINNKVEKVIITYKDRLSRVGFDLFSYLFRKYRTEIAVISEVGNTKLDSEEVFEEIVSMLHSYSMKMYSKRKNHYIEVGYEG,failed
17,MNHDIDIKKVRLNCFRQSKVPGEFMLQMRIPGGIVDAKYLSQIQEIAETWGNGTFHMGMRQTFNIPGIKYENIQAVNKFIENYLQEVEVDRCNCDMKVDENGYPTIGARNVMACIGNSHCIKANVDTKDMANKIEKLVFPSHYHIKVSVAGCPNDCAKGHFQDFGVIGQARMEYHEERCIGCGACVRACEHHATRVLSLNDKGLVDKDPCCCVGCGECVLACPASAWTRKPEKFYRIVIGGRTGKQTPRMGKTFINFATEEVVLGIFANWQKFSAWALDYKPEYLHGGHLIDRAGYHKFKEIILDGVELNPEALVADNIFWAETEYRSNFNVKPIKMHKTIESNRPLRLEHHHHHH,failed
18,MNHEAVQNYYGEVLQSSADLQTNACCTPDAVPAHLKPVLGKLHDEVMARYYGCGLIAPLALEGARILDLGCGAGRDVYALSALVGESGAVVGVDMTPAQLEVAQAHRAYHAEVFGHAAPNTEFHQGYIEKLDDLPLKPGSFDIIVSNCVLNLATDKAAVLRGAQRLLKPGGEMYFSDVYADRRIPEALARDEVLYGECLSGALYWNDFLSLARGAGFGDPRMVESRLLTIENPELERRVGPIRFLSATYRLFNLAGLEPDCEDYGQAVIYKGTVPHAPHEFVLDDHHVIETGKVFPVCGNSWRMLAESRFAPHFQFIGDFSTHYGIFAGCGGASPFNGLSPVAPAASGGCC,failed
19,MNIAPLKVSLLSLALLLSPVASLPAHAACTANLALQPASSLPALGGRLVYHSYMEYGDGSSNLYLHDFKSKSTRQLNQPGWNIEDPMNAHFSPDGRYLTFMGRQNGAWHVFAWAIGGTQAPSNLTAAIGGRNEDPKFSFDGRQVVLKHEGDIRLATLVFNGDGSVGVSAWKAVTGDGWSTEESMPFLTPSGKYVVYATGAGDSLRVVRRNLENGQVCALATPAAGGRDYYPVVRDYTAYFLSRTQPAGNDQLAMVVPNSPPGTPAILPLNHCQGDNSDAAPVNEDYLIFSSTSFDPTYSLLLGDIAAARVWRLDPAQINLPDGRQKLGASYTAAR,failed
20,MNIAPVVDSLSAPAMLEELKQSPPWLRLSLLFPLFFLNGWLIYKAMGFLQPLSSLLVAAALLAFLLDIPVRILVEKGLKRPWAVASVLLIALVVISLFLLIVIPLAIDQLGQLLDNLPGWFRSGNAQLLMLQAWVNEHYANLQVDLQPLISQAIEKLSRILNSFGNQLLGLVGVTISTSINGLILLVLTIFLVLGGEKIWDGIFSWFPHPWQRDLQNLIRDTFEGYFATQAILAGILSVAQMVVFTLLQAPYAILFAITIGLSTLIPFASALSIIVISLLLMLENFWLGVKILLAAVIVGQINDNVISPRLMGNRTGLNPAWIIVSLFVGSKLGGVLGLLVAVPLASVIKATSDRLRGLPKKSGEQPAEVSVVST,failed
